From patent US20200246383A1 (REGENTS OF THE UNIVERSITY OF MINNESOTA, published 2020) come the findings set out here.

For assay [1], the target named is T1, recombinant human dipeptidyl peptidase IV (hDPP-IV), biotinylated (human, UniProt P27487 29-766, limits assumed, biotinylated).
T1 construct: also called human DPP-IV
The assay is described as follows: ELISA: B12 IgG 0.1 to 500 nM on biotinylated hDPP-IV captured on streptavidin-coated wells; detection with peroxidase anti-human IgG mAb; OD 450nm. As to the method: FIG. 2A-FIG. 2E show in vitro characterization of the anti-FAP monoclonal antibody B12 immunoglobulin G (IgG). FIG. 2A. B12 IgG specificity for human fibroblast activation protein alpha (hFAP) (circle), mouse fibroblast activation protein alpha (mFAP) (square), and the homologous protease human dipeptidyl peptidase IV (hDPP-IV) (triangle) was determined by enzyme-linked immunosorbent assay (ELISA). B12 IgG was serial-diluted from 500 nM to 0.1 nM and added to protein coated wells. B12 IgG binding was detected by a peroxidase conjugated […] monoclonal antibody. FIG. 2B. […] FIG. 2C. B12 IgG binding to membrane-bound FAP was analyzed by flow cytometry. […] Unstained cells (blue line) were used as a negative control. FIG. 2D. mRNA levels of hDPP-IV were investigated by quantitative RT-PCR in prostate (R1-EnzR, R1-EnzR^FAP, PC3) and colon (Caco2) cancer cells. mRNA fold change is normalized to R1-EnzR. **p 0.01. FIG. 2E.
Dilution ELISA: A MaxiSorp plate was coated and blocked as described above. 50 μL of biotinylated human FAP, murine FAP, or human DPP-IV ([…] in PBS, 1% BSA, 0.005% Tween20) was added to 8 sets of triplicate wells each. […] B12 IgG binding was detected with a 1:1000 dilution of anti-human IgG monoclonal antibody conjugated to peroxidase (sc-2769, Santa Cruz Biotechnology, Dallas, Tex.) in PBS, 1% BSA.

For assay [2], the target named is T2, human dipeptidyl peptidase IV expressed on cells (PC3 and CaCo2 cells) (human, UniProt P27487 1-766).
T2 construct: whole, on cells; also called hDPP-IV-expressing cells; hDPP-IV-positive cell lines
T2 sequence (P27487 whole entry): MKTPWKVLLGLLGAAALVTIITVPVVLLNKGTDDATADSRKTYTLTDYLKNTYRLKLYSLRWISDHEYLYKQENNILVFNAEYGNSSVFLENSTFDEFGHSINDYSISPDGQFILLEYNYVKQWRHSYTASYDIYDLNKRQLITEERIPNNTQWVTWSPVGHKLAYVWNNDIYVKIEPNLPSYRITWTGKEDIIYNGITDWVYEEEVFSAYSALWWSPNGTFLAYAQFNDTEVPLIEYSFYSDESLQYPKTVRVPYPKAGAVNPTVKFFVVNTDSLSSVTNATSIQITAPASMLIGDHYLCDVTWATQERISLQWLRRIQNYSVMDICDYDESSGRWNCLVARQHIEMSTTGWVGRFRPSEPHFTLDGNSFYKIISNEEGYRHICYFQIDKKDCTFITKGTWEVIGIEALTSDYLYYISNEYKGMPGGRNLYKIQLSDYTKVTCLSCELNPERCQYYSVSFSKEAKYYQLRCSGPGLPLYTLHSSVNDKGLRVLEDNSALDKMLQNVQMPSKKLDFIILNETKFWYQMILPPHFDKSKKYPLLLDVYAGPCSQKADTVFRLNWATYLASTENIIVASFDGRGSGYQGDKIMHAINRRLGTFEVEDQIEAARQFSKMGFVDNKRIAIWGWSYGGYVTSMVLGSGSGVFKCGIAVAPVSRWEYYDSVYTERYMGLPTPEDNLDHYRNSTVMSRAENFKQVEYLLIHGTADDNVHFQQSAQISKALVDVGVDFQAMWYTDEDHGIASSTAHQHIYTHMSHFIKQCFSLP
The assay is described as follows: flow cytometry, Alexa Fluor 488 conjugated B12 IgG on hDPP-IV-expressing PC3 cells against unstained cells. A general note: A flow cytometer gives signals particle by particle.

T1 sequence (P27487 29-766 limits assumed): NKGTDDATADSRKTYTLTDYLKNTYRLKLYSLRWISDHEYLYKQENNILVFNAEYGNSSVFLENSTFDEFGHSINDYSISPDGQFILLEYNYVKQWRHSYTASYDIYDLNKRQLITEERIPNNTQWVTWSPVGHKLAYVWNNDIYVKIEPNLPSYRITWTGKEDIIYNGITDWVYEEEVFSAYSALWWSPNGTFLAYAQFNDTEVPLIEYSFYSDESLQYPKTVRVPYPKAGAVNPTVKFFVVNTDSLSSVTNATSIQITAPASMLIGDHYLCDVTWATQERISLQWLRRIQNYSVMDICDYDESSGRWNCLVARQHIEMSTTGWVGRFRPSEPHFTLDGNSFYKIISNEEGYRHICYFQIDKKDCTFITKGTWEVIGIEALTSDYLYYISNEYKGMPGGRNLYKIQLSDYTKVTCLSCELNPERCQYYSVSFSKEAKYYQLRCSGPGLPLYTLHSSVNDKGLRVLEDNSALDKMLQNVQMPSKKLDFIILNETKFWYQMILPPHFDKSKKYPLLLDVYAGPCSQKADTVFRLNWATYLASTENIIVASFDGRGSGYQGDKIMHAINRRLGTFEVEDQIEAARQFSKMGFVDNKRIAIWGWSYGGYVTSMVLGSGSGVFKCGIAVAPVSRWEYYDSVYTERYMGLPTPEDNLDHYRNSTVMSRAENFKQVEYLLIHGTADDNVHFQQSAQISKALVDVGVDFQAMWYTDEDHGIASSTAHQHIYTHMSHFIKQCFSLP

B1: B12 IgG (chimeric anti-FAP monoclonal antibody: murine B12 variable domains in a full-length human IgG) (antibody, V domains shown)
VH: EVMLVESGGGLVQPGGSLKLSCAASGFTFSSYGMSWVRQTPDKRLELVATINSNGGSTYYPDSVKGRFTISRDNAKNTLYLQMSSLKSEDTAMYYCARDYFDYWGQGTTLTVSS
VL: DIVITQSPSSLSASLGERVSLTCRASQEISGYLSWLQQKPDGTIKLIYAASTLDSGVPKRFSGSRSGSDYSLTISSLESEDFADYYCLQYASYPWTFGGGTKLEIKR
notes: They were cloned into pFUSEss human IgG expression vectors (Invivogen) and expressed in HEK293T cells; capture was detected with an anti-human IgG1 secondary and the isotype control is human IgG1; also called anti-FAP mAb; aFAP
In the case of B1, the binding result is on record as “no binding (tested: 500 nM)” in assay [1] and “no binding (tested: 100 nM)” in assay [2].
